Earlier results as cited in publication PMC9618554.

Molecular target: insulin receptor site-2' (Homo sapiens) (UniProt P06213)

Sequence of insulin (P01308 90-110): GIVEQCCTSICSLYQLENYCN

Kd: 400 nM
Substance: insulin (from UniProt P01308)
